Reference: the DeepSol protein solubility set

test: soluble on expression in E. coli; label from the status in PepcDB or PDB records

For “MTGSQEDQPKIIIDQEQPKTLETEHQPEPSSSSPDQKKWGTHVMGAPAAPVAHPDNQQAAAWVAGDNQQTQYQPYVIYSPVEHPTTNNPLEPVIGMFHTWSRKAETVARNLWHNLKTGPSMSETAWGKVNLTAKAITKGGFESLFRQIFGTEPNETLKKTFACYLSTTTGPVAGTVYLSNARVAFCSDRPLYFTAPSGQESWSYYRVVVPLANVATVNPVVVKETPPEKYIQLTTVDGHDFWFMGFVNYEKATHHLLTSVSDFQTAHGSVSG”, which “soluble on expression in E. coli” value is on record?
The value was “soluble”.

Which “soluble on expression in E. coli” value does the source give for “MSTIHEFPKNYERFIAQGEEALVEHNQIAALENFQQAYQLQQTPPVNQKIVQLLLEMGEADEALALAEAFQESYFENLETAAIYMQIYSQSRRFIEGYILLKQLLQTKKITLAQQKTLEQQLMQVEEAYQQLETQQIQAIKRNLLVSDQLPVYQQLANIKTSLYLPKPVFVEVAKDLVMNQALSYFAREWFIEELALLQFSEPLTFLWYDNQPQTVLLEGKTGPLNTPIYSEICTELRNRLENDDPIMLQHLEEEIRLHLAYLYPLAETVISDPTIWVLGYLATYYPEYIEKELTEAKGHQIDAVQKVQQAIRTAFTQIML” here?
The value was “soluble”.

Which “soluble on expression in E. coli” value does the source give for “GHHHHHHHHHHSSGHIEGRHMPAAPSPAPAGAVAGGPAAGVPAAASGAAEAAMPLPAALPGALAGSHAPRLPLAAGGRLARTRAVREFFDYCLTAQGELTPAALDALVRREIAAQLDGSPAQAEALGVWRRYRAYFDALAQLPGDGAVLGDKLDPAAMQLALDQRAALADRTLGEWAEPFFGDEQRRQRHDLERIRIANDTTLSPEQKAARLAALDAQLTPDERAQQAALHAQQDAVTKIADLQKAGATPDQMRAQIAQTLGPEAAARAAQMQQDDEAWQTRYQAYAAERDRIAAQGLAPQDRDARIAQLRQQTFTAPGEAIRAASLDRGAG” here?
The value was “soluble”.

With “MSLQSSEAIDTEPKTISPVPEGRPVLVLDLDETCIYSTPAKPEKQQNFPIRIKRRNVFIQVRPGMQECIRRLSEKYEIFFYTASTKIYANKVIDAIAPFVDNEHRFFVSRDQLKDLTLINRPLGKVLLLDNSACSAQKNNLLLIKTWIGDPNDNAFTNEVMPLLDNLVKESDIPSACRNLVSSRRYPSLYVIRSEGHHHHHH” as the sequence, how does the “soluble on expression in E. coli” value read?
Its value is “soluble”.

With “MTTTGLRPRLNVRQRKDTGYLPHSSPFSLQFRPAILYSDGYLPQVPEDKNETDKIHTPRIVPQKLERTPSDTSRSRGCHCFYAGWL” as the sequence, how does the “soluble on expression in E. coli” value read?
The value was “not soluble”.

With “MGSDKIHHHHHHMAMTTEFANEITDVAKAIYEYAELGSSEYKSSSYLVEAFKRHGFQVDFPYLGMKTAFKARYFNGKPMVGLLAEYDALPNGHSCGHDLIAAWAFGTAIRLKDEFGISVTVFGTPSEEGIGEYAGSKAKFAQSGAFSDVDYVIGMHPDDRWAVGSTSLADLTIEAQFIGKSSHLLSPDYGINALDPLVESYVALSNFRRSVPNSKYPVIGMIVKEGGRASNVIPDKASMEIDIRAKKKADLAGFVDQIERILKMEGEMHYCKLNINEVTPIYDEYKSNRVIDSLLEEECQKHAVNPFNVDRSGEEPMGSTDEANVSQVIPTGHLDVKIVDPGIPAHTDEFRIAADPSRSGKTLLKAIDITVETIKTIWQDKKFMNKIKEEFKK” as the sequence, how does the “soluble on expression in E. coli” value read?
Its value is “not soluble”.

Which “soluble on expression in E. coli” value does the source give for “GKQDRQMIVVDPRKTDTAKLADVHLQVEPHKDYELVSALRAAAKGFNIEAEQVAGVPTETIYEAVDICKNAQFGSLFFAMGVTMSRGKHRIIDNAIQFVIDMNAYTKFVLTPMRGHYNVNGFNQVSTWVTGYPYGVDFSRGYPRYNPGETASNDVLQRGDTDMMINVASDAGAHFPQKAVQHMAKIPLVCIDPHETPSSVISNIVLPPAITGLEVSGTAYRMDGVPIELRKVIKAPEGMLSDAEIMK” here?
The value was “not soluble”.

With “RVDADNTALVDLWERSVRATHDFLSEADIVELYPQVRDLYLPAVEVWVLVDDDGVAQGFIGLNQAHVEMLFVEPGLRGRGIGRRLLDHARATWPRLSVDVNEQNPQACGFYRHYGFRQTGRSATDSAGRPFPLLHMSL” as the sequence, how does the “soluble on expression in E. coli” value read?
The value was “not soluble”.

For “MGSDKIHHHHHHMAEFFPEIPKIQFEGKESTNPLAFRFYDPNEVIDGKPLKDHLKFSVAFWHTFVNEGRDPFGDPTAERPWNRFSDPMDKAFARVDALFEFCEKLNIEYFCFHDRDIAPEGKTLRETNKILDKVVERIKERMKDSNVKLLWGTANLFSHPRYMHGAATTCSADVFAYAAAQVKKALEITKELGGEGYVFWGGREGYETLLNTDLGLELENLARFLRMAVEYAKKIGFTGQFLIEPKPKEPTKHQYDFDVATAYAFLKNHGLDEYFKFNIEANHATLAGHTFQHELRMARILGKLGSIDANQGDLLLGWDTDQFPTNIYDTTLAMYEVIKAGGFTKGGLNFDAKVRRASYKVEDLFIGHIAGMDTFALGFKIAYKLAKDGVFDKFIEEKYRSFKEGIGKEIVEGKTDFEKLEEYIIDKEDIELPSGKQEYLESLLNSYIVKTIAELR”, which “soluble on expression in E. coli” value is on record?
The value was “not soluble”.

For “KPYVSEDSRVYSPQEPTLVVKSVDNSVSIDVTSKYNVNLYRNGELIQKNVIAQSYSDTPTGFACYLAESINDKGFRSNPSQPVCVGEEIRIKLDGEYQPLKDNVSVVTVSKDSGIVKGAESFTAPVTGTYQFDAWYNNNLGQLNTGITNTVKLLEVLDDAGKVVGQGYLQMGHIGENQGMRYSTPIEVALEQGKTYQFALKDHFNMSYLTSNETYIYAGGIEGEKNEAQIADIRITPLM”, which “soluble on expression in E. coli” value is on record?
Its value is “not soluble”.

For “MGHHHHHHSHMQYMYFKAEPYAADEGSGEGHKWLMVHVDKRITLAAFKQHLEPFVGVLSSHFKVFRVYASNQEFESVRLNETLSSFSDDNKITIRLGRALKKGEYRVKVYQLLVNEQEPCKFLLDAVFAKGMTVRQSKGELIPQLREQCGLELSIDRFRLRKKTWKNPGTVFLDYHIYEEDINISSNWEVFLEVLDGVEKMKSMSQLAVLSRRWKPSEMKLDPFQEVVLESSSVDELREKLSEISGIPLDDIEFAKGRGTFPCDISVLDIHQDLDWNPKVSTLNVWPLYICDDGGVIFYRDKTEELMELTDEQRNELMKKESSRLQKTGHRVTYSPRKEKALKIYLDGAPNKDLTQD”, which “soluble on expression in E. coli” value is on record?
The value was “not soluble”.

With “HHPEAGNFKQRVILSHVGFDRPTVLVTEGYTAHYATHPRYQEELSKLFNANLVFVEYRYFGESMPKPCNWDYLTVENSLYDLHHVTTTLKQLYDEKWIATGISKGGQTTMFYRTYFPDDVDISVPYVAPLNQSLEDGRHEPFIANKVSTPENRKRVENFQLEVLKRKSRLLPIFEKYCSDKGYTFRIPIAEVYDFNVLEYSFALWQWGTPVNKIPETNADDHTLFKHFMAICEPDYFSEQSPYPSFNVQAAKELGYYGYDIKPFKKYLTIKSSRDYLHKVMLPPELSNLKFDKTLYNKVVKFLKENDPEMIYIYGGDDPWTASGVTWLKNKKNIKVYVLPGGSHTTRIGSFDTDTQEEIKTQINAWLNKE” as the sequence, how does the “soluble on expression in E. coli” value read?
The value was “not soluble”.

With “MSLTWYHELGIKYPLFQGGMAWASNAELVAAVSNNGALGIIGSGGRTANELRRMIRKTKTLTSQPFGVNLMLLDKNIKQLLEVICEEKISVVTTGAGSPKEIIDTIIANNIKLFPVVPNKEIALKMLNLPISGIIVEGNEAGGHVGSQNLASLLKEIAPICPLPLIAAGGIYDHHTASLANILGANGVQVGTAFLLAKECQISPIYQELICKGEENGTSLISDKNGHLTRLLNISSEYPLNKSLKAAVEKGDLINGAFMAGSSSAYLEKIEPVENIIQRIMKKEGHHHHHH” as the sequence, how does the “soluble on expression in E. coli” value read?
The value was “not soluble”.

For “MKITAVETLYCNAGWRNLSFLKISTDEGLVGWAEFPENHINNVLSPLVRHMGQQILGEDPRRIHPVIDRLRRAAWGVPFGAVSRAIGAIENALVDIKAKAIGVPAYELIGGRMRDDIRMYWSHCGSYHVTNWKDLGVPRITSLDDVKSLGRQVRESGYHALKTNLMMFDRPEPYMYRPGFAGGSGDPDRNPLRSAISAAVDQMTAFREGAGPDIGLKLDVNFNFRPEGYIRLAHALEPVDLDWLEIDNFDAKAVAQVRRASRIPIASCETLSGRRQLRPYLEEQAVDVVIIDVPWNGIYEAMRMAALADSFEVNVATHNFCGPIATLISAHFCAAVPNFRVMEMDVVQVPWTNDLITNPPTIERGYMRLPDGPGWGADVNEEALRAHPPVAAKH”, which “soluble on expression in E. coli” value is on record?
Its value is “not soluble”.

With “MGSDKIHHHHHHMPYDEILPIETLVRPKVSDFREHYLEKERPVKIARALDAWPAMQKWSLDYFENRFGDETIGVESFQPDERGPGNNSPQGYVKHLRFQELKLKELIRILRTKPDHMYYMASHPFRKSFPNLRADLAPHPYVQGHIEHIPGAHMDSYLWIGPAGTHTPIHTDPMPNFLTQIVGRKMVYLFPPDQASKNLYIGQFERETFSPVDLEKPDLERYPNYRHCTPYRAIIEPGETLHIPRNWGHCVISMDISISISTFFITYPQLFRLVPEFFTQYVKRAFEGWRWKGMENERAGLNPPPR” as the sequence, how does the “soluble on expression in E. coli” value read?
The value was “not soluble”.

For “SAEAGTGEPSPSVEGEHGTEYDTLPSDTVSLSDSDSDLSLPGGAEVEALSPMGLPGEEDSGPDEPPSPPSGLLPATVQPFHLRGMSSTFSQRSRDIFDCLEGAARRAPSSVAHTSMSDNGGFKRPLAPSGRSPVEGLGRAHRSPASPRVPPVPDYVAHPERWTKYSLEDVTEVSEQSNQATALAFLGSQSLAAPTDCVSSFNQDPSSCGEGRVIFTKPVRGVEARHERKRVLGKVGEPGRGGLGNPATDRGEGPVELAHLAGPGSPEAEEWGSPHGGLQEVEALSGSVHSGSVPGLPPVETVGFHGSRKRSRDHFRNKSSSPEDPGAEV”, which “soluble on expression in E. coli” value is on record?
Its value is “soluble”.

For “MGSDKIHHHHHHMKCLLCGQTMKTVLTFSSLLLLRNDDSCLCSDCDSTFERIGEENCPNCMKTELSTKCQDCQLWCKEGVEVSHRAIFTYNQAMKDFFSRYKFDGDFLLRKVFASFLSEELKKYKEYQFVVIPLSPDRYANRGFNQVEGLVEAAGFEYLDLLEKREERASSSKNRSERLGTELPFFIKSGVTIPKKILLIDDIYTTGATINRVKKLLEEAGAKDVKTFSLVR”, which “soluble on expression in E. coli” value is on record?
The value was “not soluble”.

For “DIGCYTLGALPPYEAINSCVDMGASITMAKGAADAGLFPAVSVIGDSTFTHSGITGLLDAINENSNITVIISDNESISMTGGQHSSAYGKVEAICRGIGVDPDHIRELLPVPKNHDELCSIIREEINYEGVSVIIPRRVCIQKHARDAKAAKRAKA”, which “soluble on expression in E. coli” value is on record?
The value was “not soluble”.

For “MSLAVKPIPEGQHSITPYLAINDAAKAIEFYKQAFGAKEMFRLDAPGGRVGHAELRIGDSSLMLGDPCDMEGGLTASQKLSGAGVGLHLYVEDCDKVYAQALAAGGIQLHPLTDQFYGDRSGTLKDPFGNIWFVSTHKEDLTPDEIRARAAKMFGEGHHHHHH”, which “soluble on expression in E. coli” value is on record?
The value was “soluble”.

With “MNKPLMSKATAVWLIDNTTLSFRQIADFCGMHELEVQGIADGDVATGVKGFDPVANNQLDAIEIEKGQRDPLYKMKLKFNPAAVGEEKRRGPRYTPLSKRQDRPAAILWLVKFHPELSDGAIAKLVGTTKPTIQSIRERTHWNIGSIQPIDPVALGLCRQTELDAAVQQAARRKAAEGVVMSDDERRKLVSTEQSLSMPDEPRMPSGLEQFGRSEEEKRPADFSDADSFFNLPHGDDADEEEDEDPARAAALEHHHHHH” as the sequence, how does the “soluble on expression in E. coli” value read?
The value was “soluble”.

With “AIAWNKKNEEKEDFGIIVILWKQVTVKEDGKVPLEPFLTAAKEVLRVVDAFGSGFRIVKNDIAGNIKKLYRANQTVHAETLQELIIAENSPDGLATVALLWLKRAFQFIASFLRRLVVTDKSLEQCVTEAYNCTLRPCHSAVIQKVFWGGVKLAPSRERFYRKLHPDLNIAKAKIEEFLIELHDPLCCIVQFFFQRELEDQCWGDEVYQRKDSSEWLKVSCEQDSV” as the sequence, how does the “soluble on expression in E. coli” value read?
The value was “soluble”.

For “MTTTPTLEVYLQPEQLKAALRKDATVGLTSNPKWLPPKYFYDARGSELFEQITALPEYFPTRTERELLRRYSGEIAEVTAPEILVELGSGSSEKTRLLLGAATRHGSLHTYVPQDVSVSALEGAAEQIGVEFPHLTVRGVVSDFTESLHHLPRGGRRTIAFLGGTLGNMVPAERAEFLSGIADVLEPGEHLLLGVGLVIDPAVLVPAYDDAAGVTAQFNRNVLQVLNTQLDADFPVDEFRHVALWDADNEWIEMRLEAERAMSIRVGELDLDVEFTAGEQLRTEISAKFTLDGIRRELAEAGFDVERTWTDPDDRFALVCAARN”, which “soluble on expression in E. coli” value is on record?
Its value is “soluble”.
